Patent US20200087363A1 (IMMATICS BIOTECHNOLOGIES, published 2020)

molecular target: T1, HLA-B*44:05 (human); experiment: UV peptide exchange, anti-b2m ELISA
T1 construct: also called peptide-receptive MHC class I molecule
Protocol: Only peptide candidates that can effectively bind and stabilize the peptide-receptive MHC molecules prevent dissociation of the MHC complexes. To determine the yield of the exchange reaction, an ELISA was performed based on the detection of the light chain (β2m) of stabilized MHC complexes. The assay was performed as generally described in Rodenko et al. (Rodenko et al., 2006)
96 well MAXISorp plates (NUNC) were coated over night with 2 ug/ml streptavidin in PBS at room temperature, washed 4× and blocked for 1 h at 37° C. in 2% BSA containing blocking buffer. […] Peptide-MHC monomers of the UV-exchange reaction were diluted 100-fold in blocking buffer. Samples were incubated for 1 h at 37° C., washed four times, incubated with 2 ug/ml HRP conjugated anti-β2m for 1 h at 37° C., washed again and detected with TMB solution that is stopped with […]. Absorption was measured at 450 nm.

GEPVTQPGSLL and RELIKAIGL fall in the same range of peptide exchange yield: 50 to 75% for the first, 50 to 75% for the second.

First: GETCVRITY
Second: VEQINISQDW
The peptide exchange yield of the first is lower: 50 to 75% for the first, over 75% for the second.

First: TETDIDREY
Second: DESADSEPHKY
The peptide exchange yield of the first is higher: 20 to 50% for the first, 10 to 20% for the second.

DELSVGRY and DEIDKLTGY fall in the same range of peptide exchange yield: 20 to 50% for the first, 20 to 50% for the second.

MEFQGPMPAGM and LEDQLKPMLEW fall in the same range of peptide exchange yield: 50 to 75% for the first, 50 to 75% for the second.

First: LEYEAPKLY
Second: REVSVVDIL
The peptide exchange yield of the first is lower: 20 to 50% for the first, over 75% for the second.

First: YENILNAI
Second: VESSQAFTW
The peptide exchange yield of the first is lower: 20 to 50% for the first, 50 to 75% for the second.

First: TEHFLKKFF
Second: EDNLIHKF
The peptide exchange yield of the first is higher: 50 to 75% for the first, 20 to 50% for the second.

Compared with VELEVPQL, QEDKATQTL is higher in peptide exchange yield: 20 to 50% for the first, over 75% for the second.

Compared with KEFGIGDLVW, ALTEDSIDDTF is lower in peptide exchange yield: over 75% for the first, 10 to 20% for the second.

Compared with QELLDIANYL, AEQLRGFNA is lower in peptide exchange yield: over 75% for the first, 50 to 75% for the second.

First: VEDDNYKLSL
Second: YEMAIYKKY
The peptide exchange yield of the first is lower: 50 to 75% for the first, over 75% for the second.

Compared with SESLPRAPL, SEYQDGKEF is lower in peptide exchange yield: 50 to 75% for the first, 20 to 50% for the second.

First: HEIPQESL
Second: AEHPDFSPCSF
The peptide exchange yield of the first is lower: 10 to 20% for the first, 50 to 75% for the second.

First: DQVTVFLHF
Second: AEDNMVTSY
The peptide exchange yield of the first is lower: 10 to 20% for the first, 50 to 75% for the second.

QEILHGAVRF and SEVEGLAFV fall in the same range of peptide exchange yield: 50 to 75% for the first, 50 to 75% for the second.

KESQLPTVMDF and EEEDRDGHTW fall in the same range of peptide exchange yield: 50 to 75% for the first, 50 to 75% for the second.

Compared with AEALVDGKW, DEDYTYLIL is lower in peptide exchange yield: 50 to 75% for the first, 20 to 50% for the second.

Compared with KQWEYNEKLAF, TEFELLHQV is higher in peptide exchange yield: 10 to 20% for the first, 50 to 75% for the second.

QEVAGYVLI and AEALVDGKWQEF fall in the same range of peptide exchange yield: 50 to 75% for the first, 50 to 75% for the second.

Compared with VEEEISRHY, SQYPHTHTF is higher in peptide exchange yield: 20 to 50% for the first, 50 to 75% for the second.

First: MELQVSSGF
Second: IEVSSPITL
The peptide exchange yield of the first is lower: 50 to 75% for the first, over 75% for the second.

Compared with TENPKKFKI, RLLPGKVVW is lower in peptide exchange yield: 50 to 75% for the first, 20 to 50% for the second.

First: VEFPATRSL
Second: YEIRAEAL
The peptide exchange yield of the first is higher: 50 to 75% for the first, 20 to 50% for the second.

SEQNIQRANLF and EEFCFSVRF fall in the same range of peptide exchange yield: 50 to 75% for the first, 50 to 75% for the second.

VELMFPLLL and KESMLKTTL fall in the same range of peptide exchange yield: 50 to 75% for the first, 50 to 75% for the second.

First: QEFPAHSL
Second: IEVSSPITLQAL
The peptide exchange yield of the first is higher: 50 to 75% for the first, 20 to 50% for the second.

First: VEAATVSKW
Second: EEFIGKIGI
The peptide exchange yield of the first is higher: 50 to 75% for the first, 20 to 50% for the second.

First: HEHGLFNLY
Second: EESSSPVDEY
The peptide exchange yield of the first is higher: 50 to 75% for the first, 20 to 50% for the second.

GEQPPEGQW and CDAQIQYSY fall in the same range of peptide exchange yield: 50 to 75% for the first, 50 to 75% for the second.

EELALRIGL and QEWDPQKTEKY fall in the same range of peptide exchange yield: 50 to 75% for the first, 50 to 75% for the second.

First: SEDLAVHL
Second: QEIGQKTSV
The peptide exchange yield of the first is higher: over 75% for the first, 50 to 75% for the second.

First: AAEPLVGQRW
Second: EDLAVHLY
The peptide exchange yield of the first is higher: 20 to 50% for the first, 10 to 20% for the second.

First: AEDLEKKYA
Second: TEEPQRLFY
The peptide exchange yield of the first is higher: 20 to 50% for the first, 10 to 20% for the second.

First: AELDHLASL
Second: SEKEPGQQY
The peptide exchange yield of the first is higher: 50 to 75% for the first, 20 to 50% for the second.

Binder REDLVGPEV has a peptide exchange yield of 50 to 75%.
